Experimental data: article PMC11319201

Target: STAG2^R370Q–RAD21 complex (UniProt Q8N3U4)
Test: ITC; MicroCal iTC 200, 25 °C; 20 mM Tris pH 7.7, 150 mM NaCl, 0.5 mM TCEP; 300 μl of 50 μM STAG2–RAD21 in the cell, 500 μM CTCF peptide injected as 16 x 2.5 μl; one-site binding model

Chain of STAG2^R370Q–RAD21 complex (Q8N3U4 whole entry R370Q, chain 1 of 2): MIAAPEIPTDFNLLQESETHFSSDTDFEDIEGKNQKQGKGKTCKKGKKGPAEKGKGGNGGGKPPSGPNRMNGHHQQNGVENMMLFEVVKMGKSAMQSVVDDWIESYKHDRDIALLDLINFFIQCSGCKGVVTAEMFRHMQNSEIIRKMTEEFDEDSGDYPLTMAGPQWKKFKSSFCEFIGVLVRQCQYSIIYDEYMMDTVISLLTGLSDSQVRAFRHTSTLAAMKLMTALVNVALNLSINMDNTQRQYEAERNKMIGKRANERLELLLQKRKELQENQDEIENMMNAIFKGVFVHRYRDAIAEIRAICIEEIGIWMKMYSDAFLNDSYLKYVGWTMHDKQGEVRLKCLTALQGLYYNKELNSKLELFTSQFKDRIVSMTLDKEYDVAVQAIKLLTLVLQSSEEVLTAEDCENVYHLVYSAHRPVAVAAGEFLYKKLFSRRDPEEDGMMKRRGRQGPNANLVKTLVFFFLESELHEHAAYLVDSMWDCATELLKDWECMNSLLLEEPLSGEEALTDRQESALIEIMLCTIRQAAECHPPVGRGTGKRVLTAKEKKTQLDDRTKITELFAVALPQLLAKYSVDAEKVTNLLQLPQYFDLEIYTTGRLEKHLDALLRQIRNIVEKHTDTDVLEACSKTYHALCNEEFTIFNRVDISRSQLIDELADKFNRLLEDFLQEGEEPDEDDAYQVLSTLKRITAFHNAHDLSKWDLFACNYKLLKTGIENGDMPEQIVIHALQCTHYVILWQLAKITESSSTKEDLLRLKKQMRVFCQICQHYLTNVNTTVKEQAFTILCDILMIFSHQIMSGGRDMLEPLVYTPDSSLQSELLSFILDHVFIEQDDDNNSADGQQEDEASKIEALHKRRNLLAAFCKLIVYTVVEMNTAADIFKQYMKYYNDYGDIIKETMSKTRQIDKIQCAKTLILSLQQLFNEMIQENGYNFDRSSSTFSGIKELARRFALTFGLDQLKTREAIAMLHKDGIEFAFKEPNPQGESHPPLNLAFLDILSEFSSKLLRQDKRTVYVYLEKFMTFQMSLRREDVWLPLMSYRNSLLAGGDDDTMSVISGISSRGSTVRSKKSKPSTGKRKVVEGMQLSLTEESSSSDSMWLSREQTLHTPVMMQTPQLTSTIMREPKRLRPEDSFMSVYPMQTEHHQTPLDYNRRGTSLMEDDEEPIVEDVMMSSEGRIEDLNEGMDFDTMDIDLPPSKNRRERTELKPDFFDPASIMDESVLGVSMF
Chain of STAG2^R370Q–RAD21 complex (O60216 whole entry, chain 2 of 2, further chain): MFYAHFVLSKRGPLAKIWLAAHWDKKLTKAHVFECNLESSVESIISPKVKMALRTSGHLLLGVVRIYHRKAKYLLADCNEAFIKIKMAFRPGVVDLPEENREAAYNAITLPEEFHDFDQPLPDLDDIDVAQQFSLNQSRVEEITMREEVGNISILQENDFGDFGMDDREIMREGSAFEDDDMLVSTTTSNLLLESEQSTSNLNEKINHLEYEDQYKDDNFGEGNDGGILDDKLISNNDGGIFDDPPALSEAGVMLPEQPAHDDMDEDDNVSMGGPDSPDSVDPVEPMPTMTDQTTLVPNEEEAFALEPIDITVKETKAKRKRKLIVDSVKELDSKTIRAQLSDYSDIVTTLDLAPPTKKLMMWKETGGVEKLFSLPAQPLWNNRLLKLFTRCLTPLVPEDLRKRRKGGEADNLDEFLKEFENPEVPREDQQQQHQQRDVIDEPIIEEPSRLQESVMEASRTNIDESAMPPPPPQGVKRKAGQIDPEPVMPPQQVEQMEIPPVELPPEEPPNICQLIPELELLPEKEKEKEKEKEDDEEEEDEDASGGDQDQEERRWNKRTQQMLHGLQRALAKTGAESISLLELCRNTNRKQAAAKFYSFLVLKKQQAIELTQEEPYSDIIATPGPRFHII

- fold lower affinity than WT: 10 fold
Substance: CTCF peptide
